{"source": "paper PMC4944944", "about": "(2016)", "binders": {"B1": {"name": "Flag::mCherry::CHDP-1 (protein)", "chain": "MSEEIKKIEEVAEQDKAPKVPTTEPPVDVPAPVTEEAPKVEEAVAEIAAPAAAEGETATAAAAAPEEKKKSGGVARRFTFNKRWGKHRDAEASTPKEPEAPKDPKEDVLGWIAQQIPQAVHKANYQVIDWVQKTAIPEEGERKTIPGKDQATTRNQFIGFFKDGDVLAKLANALEPGAVEVAAAEENADAAAQKEVQKKNIDAFGAWAQKTLGTEAAPVTNEDLLEKGKAGYTAVFQTLWQLGVQAKEKFDKEGFNVDTIVQLANSVVKSGLLTTILGFFRRNRQAAAAVEEPKDETAAAEGAGEAKEEGATGEVADTADEPVAVKQETSAPAAVAAN"}}, "target": "F-actin prepared from muscle actin (Oryctolagus cuniculus (Rabbit), UniProt P68135)", "test": "F-actin co-sedimentation", "data": [{"binder": "B1", "values": [{"measurement": "binding result", "result": "no binding"}]}]}
